The source of these data is publication PMC8325959.

The target in this assay is recombinant human GST–PBD (UniProt P53350). Nature of the assay: in vitro binding assay, western blot quantification. The settings on record: read off a plot. On the technique in general: In western blotting, separated proteins are transferred to a membrane and probed.
UniProt P53350, sequence (P53350 whole entry, looked up): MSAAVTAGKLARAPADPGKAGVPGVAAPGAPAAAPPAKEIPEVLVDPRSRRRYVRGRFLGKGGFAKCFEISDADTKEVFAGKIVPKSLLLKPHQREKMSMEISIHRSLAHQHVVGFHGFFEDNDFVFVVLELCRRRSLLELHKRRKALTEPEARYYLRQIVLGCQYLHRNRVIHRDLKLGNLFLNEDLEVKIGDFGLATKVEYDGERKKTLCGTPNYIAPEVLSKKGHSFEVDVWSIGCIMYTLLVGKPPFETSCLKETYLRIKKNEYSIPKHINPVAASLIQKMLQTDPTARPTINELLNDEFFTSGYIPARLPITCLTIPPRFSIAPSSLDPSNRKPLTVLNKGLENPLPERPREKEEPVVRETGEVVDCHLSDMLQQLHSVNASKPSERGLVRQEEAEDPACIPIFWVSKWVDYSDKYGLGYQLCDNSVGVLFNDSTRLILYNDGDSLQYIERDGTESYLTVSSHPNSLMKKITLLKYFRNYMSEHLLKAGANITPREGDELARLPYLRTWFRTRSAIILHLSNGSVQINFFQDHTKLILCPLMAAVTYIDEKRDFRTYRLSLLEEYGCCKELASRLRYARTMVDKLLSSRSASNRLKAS

Take “MBP–CTb (WT Ana1 CTb fragment), phosphorylated by PLK1 in vitro (from UniProt Q9VC64) S10T”: the response runs as follows: (repeat PLK1 #1, MBP–CTb pre-treated with PLK1 (+), parent: est. 1.7) 1.1 a.u; (repeat PLK1 #2, MBP–CTb pre-treated with PLK1 (+), parent: est. 1.9) 1.5 a.u; (repeat PLK1 #3, MBP–CTb pre-treated with PLK1 (+), parent: est. 1.8) 1.4 a.u; (repeat PLK1 #4, MBP–CTb pre-treated with PLK1 (+), parent: est. 2.2) 1.3 a.u.

For “MBP–CTb (WT Ana1 CTb fragment), pre-treated with buffer S10T”, the response was found to be 1 a.u (repeat Aurora #1, no kinase (-), parent: est. 1.4); 1 a.u (repeat Aurora #2, no kinase (-), parent: est. 1.3); 1 a.u (repeat PLK1 #1, no kinase (-), parent: est. 1.1); 1 a.u (repeat PLK1 #2, no kinase (-), parent: est. 1.2); 1 a.u (repeat PLK1 #3, no kinase (-), parent: est. 1.3); 1 a.u (repeat PLK1 #4, no kinase (-), parent: est. 1.3).

With “MBP–CTb (WT Ana1 CTb fragment), phosphorylated by Aurora A in vitro S10T”, the response runs as follows: (repeat Aurora #1, MBP–CTb pre-treated with Aurora A (+), parent: est. 1.4) 1.2 a.u; (repeat Aurora #2, MBP–CTb pre-treated with Aurora A (+), parent: est. 1.5) 1.2 a.u.

In the case of “MBP–CTa (WT Ana1 CTa fragment), pre-treated with PLK1 S10T”, the response (single repeat PLK1 + CTa, MBP–CTa pre-treated with PLK1 (+), parent: est. 1.0) came out at 1.1 a.u.
